Article PMC10403363, “Mechanism of ribosome-associated mRNA degradation during tubulin autoregulation” (Molecular Cell, 2023)

Columns and labels:
[1] = target: T1, human SCAPER-FLAG (recombinant, purified) (human, UniProt Q9BY12 1-1400); test: pull-down; 100 nM SCAPER-FLAG and 150 nM Strep-TTC5 in IP buffer (50 mM HEPES pH 7.4, 100 mM KAc, 5 mM MgAc2, 1 mM DTT, 0.01% digitonin), 4°C; Streptactin magnetic beads; Coomassie; conditions: both partners purified
T1 construct: SCAPER, human cDNA from Genscript; construct names (aa351-1400) imply 1400 residues; also called S-phase cyclin A associated protein residing in the ER; source: Expi293 cells, transfected, purified (anti-FLAG resin, 3xFLAG peptide elution); not shown: FLAG, C-terminal, kept
T1 sequence: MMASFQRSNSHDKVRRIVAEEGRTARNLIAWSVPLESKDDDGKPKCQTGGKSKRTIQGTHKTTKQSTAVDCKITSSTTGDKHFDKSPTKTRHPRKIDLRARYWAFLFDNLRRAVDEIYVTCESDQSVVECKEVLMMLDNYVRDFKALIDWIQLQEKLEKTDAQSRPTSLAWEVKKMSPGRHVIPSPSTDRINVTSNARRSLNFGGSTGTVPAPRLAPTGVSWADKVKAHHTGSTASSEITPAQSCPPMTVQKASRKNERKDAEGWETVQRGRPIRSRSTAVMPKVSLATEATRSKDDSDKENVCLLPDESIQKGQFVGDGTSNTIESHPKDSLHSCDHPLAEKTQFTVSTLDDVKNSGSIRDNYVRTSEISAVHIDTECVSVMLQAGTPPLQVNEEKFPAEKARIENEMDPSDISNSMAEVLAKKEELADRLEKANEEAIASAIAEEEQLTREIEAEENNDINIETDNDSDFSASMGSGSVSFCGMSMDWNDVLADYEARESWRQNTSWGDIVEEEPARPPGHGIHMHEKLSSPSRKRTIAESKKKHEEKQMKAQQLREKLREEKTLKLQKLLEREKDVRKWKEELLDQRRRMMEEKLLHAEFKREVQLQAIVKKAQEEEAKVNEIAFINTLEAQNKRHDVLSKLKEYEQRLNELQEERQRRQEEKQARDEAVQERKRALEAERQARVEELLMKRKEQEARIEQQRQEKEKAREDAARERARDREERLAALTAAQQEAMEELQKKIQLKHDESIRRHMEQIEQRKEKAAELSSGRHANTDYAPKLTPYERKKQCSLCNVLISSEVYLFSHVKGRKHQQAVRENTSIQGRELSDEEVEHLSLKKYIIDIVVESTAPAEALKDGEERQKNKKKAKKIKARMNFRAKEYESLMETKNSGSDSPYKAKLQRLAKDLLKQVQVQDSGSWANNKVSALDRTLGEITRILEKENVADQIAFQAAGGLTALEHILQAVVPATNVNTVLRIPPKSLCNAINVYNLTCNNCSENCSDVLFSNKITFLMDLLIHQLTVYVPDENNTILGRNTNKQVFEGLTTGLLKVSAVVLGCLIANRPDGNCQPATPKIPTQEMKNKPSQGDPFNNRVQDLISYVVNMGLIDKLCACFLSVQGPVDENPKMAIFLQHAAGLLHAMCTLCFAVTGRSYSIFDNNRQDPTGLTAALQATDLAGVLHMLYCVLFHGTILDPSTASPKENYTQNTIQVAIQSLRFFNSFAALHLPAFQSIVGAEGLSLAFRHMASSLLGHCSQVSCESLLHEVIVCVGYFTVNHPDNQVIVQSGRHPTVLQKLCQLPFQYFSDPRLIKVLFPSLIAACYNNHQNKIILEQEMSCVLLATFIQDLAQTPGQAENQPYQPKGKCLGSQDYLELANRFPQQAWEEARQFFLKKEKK

[2] = target: T2, human FLAG-SCAPER (recombinant, purified) (human, UniProt Q9BY12 1-1400); test: cryo-EM structure; β-tubulin RNCs from rabbit reticulocyte lysate with recombinant Strep-TTC5 and FLAG-SCAPER, affinity purified via TTC5; SCAPER with TTC5; conditions: both partners purified
T2 construct: SCAPER, human cDNA from Genscript recloned with an N-terminal FLAG tag; construct names (aa351-1400) imply 1400 residues; In the cryo-EM map only the part from residue 859 on (CTD) was resolved; also called recombinant SCAPER; source: Expi293 cells, transfected, purified (anti-FLAG resin, 3xFLAG peptide elution); not shown: FLAG, N-terminal, kept
T2 sequence: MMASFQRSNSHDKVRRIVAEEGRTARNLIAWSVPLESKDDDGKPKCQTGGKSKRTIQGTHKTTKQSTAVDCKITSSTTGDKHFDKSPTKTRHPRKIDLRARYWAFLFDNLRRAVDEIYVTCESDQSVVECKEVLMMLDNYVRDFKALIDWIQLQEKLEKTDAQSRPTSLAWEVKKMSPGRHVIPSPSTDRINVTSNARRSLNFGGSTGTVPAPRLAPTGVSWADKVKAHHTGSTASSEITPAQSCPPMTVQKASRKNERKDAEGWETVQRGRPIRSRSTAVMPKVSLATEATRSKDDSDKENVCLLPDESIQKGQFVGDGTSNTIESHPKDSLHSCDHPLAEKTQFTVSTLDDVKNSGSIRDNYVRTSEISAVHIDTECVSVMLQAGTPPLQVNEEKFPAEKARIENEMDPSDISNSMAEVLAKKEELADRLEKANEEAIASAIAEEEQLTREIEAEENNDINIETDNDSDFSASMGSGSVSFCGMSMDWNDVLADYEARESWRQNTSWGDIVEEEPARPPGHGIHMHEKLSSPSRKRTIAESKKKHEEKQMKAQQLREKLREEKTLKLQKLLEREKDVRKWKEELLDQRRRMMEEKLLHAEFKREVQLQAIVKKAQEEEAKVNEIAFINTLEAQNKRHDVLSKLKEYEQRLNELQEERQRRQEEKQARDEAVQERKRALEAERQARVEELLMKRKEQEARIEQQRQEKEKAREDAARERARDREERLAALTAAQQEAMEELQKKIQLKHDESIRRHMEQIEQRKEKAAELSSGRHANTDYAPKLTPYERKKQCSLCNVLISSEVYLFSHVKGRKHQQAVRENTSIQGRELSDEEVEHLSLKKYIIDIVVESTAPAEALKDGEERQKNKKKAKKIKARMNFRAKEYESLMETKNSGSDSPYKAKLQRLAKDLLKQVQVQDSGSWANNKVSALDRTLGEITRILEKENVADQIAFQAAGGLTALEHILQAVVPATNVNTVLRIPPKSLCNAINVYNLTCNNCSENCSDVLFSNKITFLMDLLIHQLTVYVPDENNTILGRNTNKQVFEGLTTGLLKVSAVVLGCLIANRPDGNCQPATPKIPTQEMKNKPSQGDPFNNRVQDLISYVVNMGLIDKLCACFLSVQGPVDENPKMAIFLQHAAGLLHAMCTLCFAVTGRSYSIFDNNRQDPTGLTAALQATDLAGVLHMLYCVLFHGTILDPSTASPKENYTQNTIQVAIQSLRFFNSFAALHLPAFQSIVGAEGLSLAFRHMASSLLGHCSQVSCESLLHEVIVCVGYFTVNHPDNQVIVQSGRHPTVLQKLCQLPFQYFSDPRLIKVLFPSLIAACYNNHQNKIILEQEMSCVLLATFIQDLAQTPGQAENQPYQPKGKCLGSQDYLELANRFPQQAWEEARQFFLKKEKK

binding result [1]: binds
binding result [2]: binds
B1: human 6xHis-TEV-Twin-Strep-TTC5 (natural protein)
chain: MMADEEEEVKPILQKLQELVDQLYSFRDCYFETHSVEDAGRKQQDVQKEMEKTLQQMEEVVGSVQGKAQVLMLTGKALNVTPDYSPKAEELLSKAVKLEPELVEAWNQLGEVYWKKGDVAAAHTCFSGALTHCRNKVSLQNLSMVLRQLRTDTEDEHSHHVMDSVRQAKLAVQMDVHDGRSWYILGNSYLSLYFSTGQNPKISQQALSAYAQAEKVDRKASSNPDLHLNRATLHKYEESYGEALEGFSRAAALDPAWPEPRQREQQLLEFLDRLTSLLESKGKVKTKKLQSMLGSLRPAHLGPCSDGHYQSASGQKVTLELKPLSTLQPGVNSGAVILGKVVFSLTTEEKVPFTFGLVDSDGPCYAVMVYNIVQSWGVLIGDSVAIPEPNLRLHRIQHKGKDYSFSSVRVETPLLLVVNGKPQGSSSQAVATVASRPQCE
notes: tetratricopeptide repeat protein 5 (TTC5), human; TEV site between the 6xHis and the Twin-Strep tag; also called tetratricopeptide repeat protein 5; source: E. coli BL21(DE3), purified (Ni-NTA, Streptactin Sepharose); not shown: Twin-Strep, N-terminal, kept
